The results in this text go back to PMC4703389.

For one assay, the target named is 7D8-E430G (human). Description: dynamic light scattering; 7D8 and mutants in PBS pH 7.4 up to 100 mg/mL, 25°C; linear regression of diffusion coefficient versus antibody concentration; self-association.
The target in another assay is 7D8-E345K (human). The assay is described as above.

Turning to 7D8-E430G (antibody), the interaction parameter from regression of the diffusion coefficient versus concentration with 7D8-E430G (human) was -0.0126 mL/g.

7D8-E345K (antibody): the interaction parameter from regression of the diffusion coefficient versus concentration with 7D8-E345K (human) is -0.0174 mL/g.
